Measurements: US20230270832A1, “MAGEA1 IMMUNOGENIC PEPTIDES, BINDING PROTEINS RECOGNIZING MAGEA1 IMMUNOGENIC PEPTIDES, AND USES THEREOF” (TScan Therapeutics, Inc., priority 2021, published 2023)

Assays:
[1] = test system: cancer cells that express MAGEA1; experiment: T cell recognition assay on cancer cell lines; format: cell-based, human; conditions: IFNγ release, CD137/CD69 double-positive staining
Protocol: To detect reactivity to cancer cell lines, wild-type cancer cell lines were seeded in a 96-well flat bottom plate and rested overnight at 37° C. in 5% CO2. On the following day, T cells were thawed, washed in complete RPMI-1640 medium, and added to the wells for an effector to target (E:T) ratio of 1:1 for INFγ measurement or 1:4 for flow cytometry analysis of activation-induced markers. The co-culture was incubated overnight. Cells were then harvested by pipetting, transferred to V-bottom 96-well plates, and centrifuged at 2,000 rpm for 2 minutes. The supernatant was collected for IFNγ measurement using a human IFNγ 3rd generation single-plex assay (Protein Simple). For flow cytometry analysis (Cytoflex S™ instrument, Beckman Coulter), cell pellets were washed with FACS buffer (PBS, 0.5% BSA, 2 mM EDTA) and stained for activation-induced markers, including PE-conjugated anti-CD137 (Miltenyi), AF647-conjugated anti-CD69 (Biolegend), and BV421-conjugated anti-CD8 (BioLegend).
Cancer cell lines were purchased from ATCC (Manassas, Vα.) and HEK293T cells were originally from Takara Bio (Shiga, Japan). All media were supplemented with […], except U266B1 which required 15% FBS, and 1% penicillin and incubated at 37° C. in 5% CO2. A101D (high MAGE-A1 expresing cells; TPM: 359), A2058 (medium MAGE-A1 expresing cells; TPM: 128), HS294T, and HEK293T cells were maintained in complete DMEM. SK-MEL-5 was cultured in complete EMEM, whereas U266B1, NCIH1437 and 786-0 required complete RPMI. Untransduced cancer cells were maintained in preparation for the T cell recognition assay, and 10^6 cells of each cell line were introduced with Incucyte® NucLight™ Red lentivirus reagent (Sartorius, Gottingen, Germany) Positively-labeled cells were selected using 1.5 ug/mL of puromycin over 72 hours.

[2] = molecular target: T1, epitope from MAGEA1 presented by HLA C*07:02 (Homo sapiens, UniProt P10321+P43355, DEL298-309); experiment: Identification of MAGEA1-reactive TCRs from pool of TCR-transduced T cells (CD137/CD69 sorting, TCR sequencing); format: cell-based; conditions: target cells transduced with MAGEA1 90-mer
T1 construct: an individual 90-amino acid fragments representing the top-scoring MAGEA1 tile from the screen; expressed in transfected cells; host or cells: MHC monoallelic C*07:02 HEK293T cells, lentivirally transduced with the MAGEA1 90-mer
From the text: Ten orphan TCRs from this patient were pooled together to identify their cognate antigens using the genome-wide TargetScan technology. This screen identified MAGEA1 as a novel target. […] Note that the term “TCR32-39” may also be known as “TCR39” and the term “TCR32-41” may also be known as “TCR41”.
To identify the corresponding TCR from the pool of TCR-transduced T cells, Ml-IC monoallelic C*07:02 HEK293T cells engineered to express the MAGEA1 90mer were co-cultured with the pool of T cells at an E:T ratio of 1:1 for 16-24 hours. The T cells were mixed, collected by pipetting, and labeled with a CD137 microbead kit (Miltenyi) following the manufacturer's instructions. In brief, T cells were first stained with PE-labeled anti-CD137 and AF647-labeled anti-CD69 (BioLegend), washed, and then labeled with anti-PE microbeads. Labeled cells were enriched with an autoMACS® Pro separator (Miltenyi) and CD137 and CD69 double-positive cells were sorted on a MoFlo® Astrios™ Cell Sorter (Beckman Coulter). Genomic DNA was extracted from the sorted cells and the TCR expression cassette was PCR amplified and prepared for next generation sequencing (NGS).

B1: TCR 32-39: T cell receptor recognizing MAGEA1 epitope presented by HLA-C*07:02; alpha TRAV29-DV5/TRAJ43, beta TRBV18/TRBJ2-7; wild type, HM and MGTM sequences listed (protein)
TCR alpha: DQQVKQNSPSLSVQEGRISILNCDYTNSMFDYFLWYKKYPAEGPTFLISISSIKDKNEDGRFTVFLNKSAKHLSLHIVPSQPGDSAVYFCAASAQNNDMRFGAGTRLTVKPNIQNPEPAVYQLKDPRSQDSTLCLFTDFDSQINVPKTMESGTFITDKCVLDMKAMDSKSNGAIAWSNQTSFTCQDIFKETNATYPSSDVPCDATLTEKSFETDMNLNFQNLLVMVLRILLLKVAGFNLLMTLRLWSS
TCR beta: NAGVMQNPRHLVRRRGQEARLRCSPMKGHSHVYWYRQLPEEGLKFMVYLQKENIIDESGMPKERFSAEFPKEGPSILRIQQVVRGDSAAYFCASSPSYEQYFGPGTRLTVTEDLRNVTPPKVSLFEPSKAEIANKQKATLVCLARGFFPDHVELSWWVNGKEVHSGVCTDPQAYKESNYSYCLSSRLRVSATFWHNPRNHFRCQVQFHGLSEEDKWPEGSPKPVTQNISAEAWGRADCGITSASYQQGVLSATILYEILLGKATLYAVLVSTLVVMAMVKRKNS
[1]
  recognition of cancer cells: recognize cancer cells that express MAGEA1
[1]; listed as TCR 39
  recognition of cancer cells: recognize
[2]; listed as HN-32-39
  recognition of MAGEA1 epitope / identification as MAGEA1-reactive TCR: recognizing the same novel epitope from MAGEA1 presented by HLA C*07:02
[2]; listed as TCR 39
  recognition of MAGEA1 epitope / identification as MAGEA1-reactive TCR: hits
